According to the supplement of paper PMC10567573:

B1: LRRC45 (parent)
chain: DLSAANEKNLLLQNQVDELERKFR

Variants of: B1
Assay: protein stability index of a GFP-peptide fusion (GPS, HEK-293T) (PSI 1-6); higher = more stable
Conditions: c terminus: a fixed tail appended
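Also: lentivirally expressed fusions sorted by FACS into six bins by GFP to DsRed ratio, PSI derived from sequencing read proportions per bin multiplied by bin number.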

In order of falling protein stability index:
1. DLSAAAEKNLLLQNQVDELERKFR [N6A]  5.2
2. DLSAANEKNLLLQNQVDELERKAR [F23A]  5.13
3. DLSAADEKNLLLQNQVDELERKFR [N6D]  5.02
4. DLSAASEKNLLLQNQVDELERKFR [N6S]  4.92
5. DLSAANEKNLLLQNQVDELERKFQ [R24Q]  4.91
6. DLSAAGEKNLLLQNQVDELERKFR [N6G]  4.82
7. DLSAANEKNLLLQNQVDELERKNR [F23N]  4.78
8. DLSAANEKNLLLQNQVDELERKPR [F23P]  4.77
9. DCSAANEKNLLLQNQVDELERKFR [L2C]  4.76
10. DLSAANEKNPLLQNQVDELERKFR [L10P]  4.75
11. DLSAANEKNLLLQNQVDELERKFA [R24A]  4.69
12. DLSAAEEKNLLLQNQVDELERKFR [N6E]  4.69
13. DLSAANEKNLLLQNQVDELERKFK [R24K]  4.66
14. DNSAANEKNLLLQNQVDELERKFR [L2N]  4.64
15. DLSAANEKNHLLQNQVDELERKFR [L10H]  4.62
16. DHSAANEKNLLLQNQVDELERKFR [L2H]  4.61
17. DLSAANEKNLLLVNQVDELERKFR [Q13V]  4.53
18. DLSEANEKNLLLQNQVDELERKFR [A4E]  4.53
19. DLSAAKEKNLLLQNQVDELERKFR [N6K]  4.51
20. DLSAANEKNLLLQNQVDELERKFN [R24N]  4.47
21. DLSAANEKNLLLQNQVDELENKFR [R21N]  4.47
22. DLSAANEKNSLLQNQVDELERKFR [L10S]  4.45
23. DLSAANEKNLALQNQVDELERKFR [L11A]  4.42
24. NLSAANEKNLLLQNQVDELERKFR [D1N]  4.4
25. DLSAANEKNLLLQNDVDELERKFR [Q15D]  4.4
26. DLSAANEKNLLLQNQVDELERKTR [F23T]  4.39
27. DLSAANEKNVLLQNQVDELERKFR [L10V]  4.39
28. DLSAANEKNLLLQNQVEELERKFR [D17E]  4.39
29. DLSAAVEKNLLLQNQVDELERKFR [N6V]  4.38
30. DLSAANEKNLLLQNQVDELERKFC [R24C]  4.36
31. DLSAANEKNLLLQNQVDESERKFR [L19S]  4.34
32. DLSAANEKNLGLQNQVDELERKFR [L11G]  4.32
33. DLSAANEKNLLLQNQVDEVERKFR [L19V]  4.31
34. DLRAANEKNLLLQNQVDELERKFR [S3R]  4.26
35. DLSAANEKNLLLQNQNDELERKFR [V16N]  4.24
36. DLSAANEKILLLQNQVDELERKFR [N9I]  4.21
37. DLSAANEKHLLLQNQVDELERKFR [N9H]  4.2
38. PLSAANEKNLLLQNQVDELERKFR [D1P]  4.17
39. DLSAANEKNLCLQNQVDELERKFR [L11C]  4.15
40. DLSAANEKNLLLQNQVDELERSFR [K22S]  4.15
41. DLHAANEKNLLLQNQVDELERKFR [S3H]  4.13
42. DLSAANEKKLLLQNQVDELERKFR [N9K]  4.11
43. DLSAANEKNLLLQNQPDELERKFR [V16P]  4.09
44. DLSRANEKNLLLQNQVDELERKFR [A4R]  4.07
45. DLSAANEKNLLLQNQVDELEVKFR [R21V]  4.05
46. DLSAANEKNLLLQNQLDELERKFR [V16L]  4.05
47. DLQAANEKNLLLQNQVDELERKFR [S3Q]  4.04
48. DLSAENEKNLLLQNQVDELERKFR [A5E]  4.01
49. DLSAANEKNLLNQNQVDELERKFR [L12N]  4.01
50. DLSAANEMNLLLQNQVDELERKFR [K8M]  4
51. DLSAANEKNLLLQNQVDELERKHR [F23H]  3.98
52. DLSAANEKNLLLQNQVDELARKFR [E20A]  3.96
53. LLSAANEKNLLLQNQVDELERKFR [D1L]  3.93
54. DLSAANEKNLLLQNQVDPLERKFR [E18P]  3.91
55. DLVAANEKNLLLQNQVDELERKFR [S3V]  3.89
56. DLSAANEKNLLLQNQCDELERKFR [V16C]  3.88
57. DLSAANEKNLLLQNQVDELERKYR [F23Y]  3.85
58. DLSAANEFNLLLQNQVDELERKFR [K8F]  3.85
59. DLSAANEKNLLLQNCVDELERKFR [Q15C]  3.84
60. TLSAANEKNLLLQNQVDELERKFR [D1T]  3.83
61. DLSQANEKNLLLQNQVDELERKFR [A4Q]  3.82
62. DLSAANEKNLLLQTQVDELERKFR [N14T]  3.81
63. DLSAANEKNLLLQNQVDELSRKFR [E20S]  3.8
64. DLSAALEKNLLLQNQVDELERKFR [N6L]  3.8
65. DLSAANEKNLLLQNQMDELERKFR [V16M]  3.79
66. DLSAANEKNLLLQNMVDELERKFR [Q15M]  3.77
67. DLCAANEKNLLLQNQVDELERKFR [S3C]  3.74
68. DLSAANEKNLLLMNQVDELERKFR [Q13M]  3.71
69. DLSAANEKNLLLQNQVDELERKFV [R24V]  3.71
70. DLSAANEKNLLLQKQVDELERKFR [N14K]  3.69
71. DLSAANEKNLLLQNQGDELERKFR [V16G]  3.69
72. DLSADNEKNLLLQNQVDELERKFR [A5D]  3.69
73. DLSAANEKNLLLQNQVDERERKFR [L19R]  3.68
74. DLSAANEKNLLLNNQVDELERKFR [Q13N]  3.68
75. DLSARNEKNLLLQNQVDELERKFR [A5R]  3.67
76. DLSFANEKNLLLQNQVDELERKFR [A4F]  3.61
77. DLSAANELNLLLQNQVDELERKFR [K8L]  3.6
78. DLSAANEKNLLLQNQVKELERKFR [D17K]  3.55
79. DLSAANEKNLLLQNQVDELEIKFR [R21I]  3.55
80. DLSAANEKNLLLQNQWDELERKFR [V16W]  3.55
81. DLSAANEKNLLLQMQVDELERKFR [N14M]  3.54
82. DLSAANAKNLLLQNQVDELERKFR [E7A]  3.5
83. DLSAANEKNLLLQNQVDLLERKFR [E18L]  3.31
84. DLSAANEKNLLLQNQVLELERKFR [D17L]  3.24
85. DLSAANEKNLLLQNQVCELERKFR [D17C]  3.24
86. DLSAANEKNLLLQNQVDELLRKFR [E20L]  3.23
87. DLWAANEKNLLLQNQVDELERKFR [S3W]  3.18
88. DLSAANEKNLLLQNLVDELERKFR [Q15L]  3.01
89. DLSAANEKNLLLQNQVHELERKFR [D17H]  2.99
90. DLSAANEKNLLLQNQVRELERKFR [D17R]  2.97
91. DLSAANEKNLLLQNQVWELERKFR [D17W]  2.9
92. DLSAANFKNLLLQNQVDELERKFR [E7F]  2.88
93. DLSAANEKNLLLQNQVFELERKFR [D17F]  2.81
94. DLSAANWKNLLLQNQVDELERKFR [E7W]  2.72
